For the series, the system named is MS2 coat protein. Nature of the series: apparent KD of MS2 coat protein; designed switch direction (-1 OFF switch, 1 ON switch): -1; higher = weaker reporter binding. The gist of the method: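 For each design, the apparent KD is the median over clusters of curves fitted to normalised cluster fluorescence. Clusters held RNA switches with common flanks, transcribed on Illumina chips by stalled E. coli RNA polymerase. These were titrated with SNAP-549-labelled MS2 coat protein, doubling from 0.7 or 1.5 nM to 3 µM, without input, with 200 uM small-molecule ligand, or with an oligonucleotide input.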

Where [1] appears, read: Eterna round: R95, input ligand: FMN 200 uM.
The mark [2] stands for this setting: Eterna round: R95, input ligand: microRNA oligo, concentration not stated.
Setting [3] is: Eterna round: R95, input ligand: none.
Setting [4] is: input ligand: microRNA oligo, concentration not stated.

Take “AGUACUGACACGUUGGUGUUAGUACAAUAAGCUUGUGAUACAUGAGGAUCACCCAUGUCCUCAUAAGCUCGUCUUAU [salish99_TOv2_r2_093] (puzzle: Sensor v3, turn-off variant 2)”: the “apparent KD of MS2 coat protein” value worked out at 26.1 nM under setting [1], 881 nM under setting [2] and 21.1 nM under setting [3].
For “AGUACUGACACGUUGGUGUUAGUACAAUAAGCUUGUGUUACAUGAGGAUCACCCAUGUCCUCAUAAGCUCGUCUUAU [salish99_TOv2_r2_095] (puzzle: Sensor v3, turn-off variant 2)” the same measures were 117 nM, 38.4 nM and 138 nM.
The matching figures for “AGUACUUACACGAAAGUGUUAGUACAAUAAGCUUGUGAAACAUGAGGAUCACCCAUGUCCUCAUAAGCUCGUCUUAU [salish99_TOv2_r3_016] (puzzle: Sensor v3, turn-off variant 2)”: 18.6 nM, 615 nM and 17.1 nM.
Turning to “AGUAGAUCUACGCUUGCGUGGAUCUGCAAUGCAAGUGUAACAUGAGGAUCACCCAUGUCCUCAUUUGCUCGUCUUAU [JL turnoff v2 99.03] (puzzle: Sensor v3, turn-off variant 2)”, the “apparent KD of MS2 coat protein” value under setting [1] was 46.8 nM, the “apparent KD of MS2 coat protein” value under setting [2] turned out to be 275 nM and the “apparent KD of MS2 coat protein” value under setting [3] stood at 48.8 nM.
For “AGUAGAUCUACGCUUGCGUGGAUCUGCAAUGCAGGUGUUACAUGAGGAUCACCCAUGUCCUCAUUUGCUCGUCUUAG [JL turnoff v2 99.06] (puzzle: Sensor v3, turn-off variant 2)” the same measures were 97.4 nM, 663 nM and 91.9 nM.
In the case of “AGUAGAUCUACGCUUGCGUGGAUCUGCAAUGCAGGUGUUACAUGAGGAUCACCCAUGUCCUCGUUUGCUCGUCUUAU [JL turnoff v2 99.12] (puzzle: Sensor v3, turn-off variant 2)”, the “apparent KD of MS2 coat protein” value under setting [1] is 209 nM, the “apparent KD of MS2 coat protein” value under setting [2] was 664 nM and the “apparent KD of MS2 coat protein” value under setting [3] worked out at 222 nM.
With “AGUAGAUCUACGCUUGCGUGGAUCUGCUAUGCAGGUGUUACAUGAGGAUCACCCAUGUCCUCGUUUGCUCGUCUUAU [JL turnoff v2 99.13] (puzzle: Sensor v3, turn-off variant 2)”, the “apparent KD of MS2 coat protein” value is, setting by setting: under setting [1], 333 nM; under setting [2], 693 nM; under setting [3], 448 nM.
As to “AGUAGGAGAGGAUAUACAUGAAGUCGAAAGACUUCAACUCAACAUGAGGAUCACCCAUGUAGAAGGCUCCUACA [Omei Ex2 BD A6] (Eterna round: R97, puzzle: Exclusion 2)”, the “apparent KD of MS2 coat protein” value is, setting by setting: (input ligand: FMN 200 uM) 132 nM; (input ligand: none) 25.8 nM.
For “AGUAGGUCUACCUUGGUGGAUCUGCAUUAUUCAAGUGUUACAUGAGGAUCACCCAUGUCCUCAUUUGCUCGUCUUAU [JL turnoff v2 99.25] (puzzle: Sensor v3, turn-off variant 2)”, the “apparent KD of MS2 coat protein” value by setting is: under setting [1], 385 nM; under setting [2], 45.7 nM; under setting [3], 417 nM.
For “AGUAGUAGUAUCCGAUCCGACAUGAGGAUCACCCAUGUAGCUAGACGUGCACGCGAUGCUCGUCAGACUACCAGAUG [salish99_TOv1_r3_037] (puzzle: Sensor v3, turn-off variant 1)” the same measures were 102 nM, 100 nM and 74.1 nM.
For “AGUAGUAGUAUCCGAUCCUACAUGAGGAUCACCCAUGUAGCUGGACGUGCACGCGAUGCUCGUCAGACUACCAGAUG [salish99_TOv1_r3_044] (puzzle: Sensor v3, turn-off variant 1)”, the “apparent KD of MS2 coat protein” value reads like this: under setting [1], 181 nM; under setting [2], 131 nM; under setting [3], 150 nM.
Turning to “AGUAGUAGUUUCCGUUCUUACAUGAGGAUCACCCAUGUUUCUUGACGUGCACGCGAUGCUCGUCAGACUACCAGAUG [salish99_TOv1_r3_056] (puzzle: Sensor v3, turn-off variant 1)”, the “apparent KD of MS2 coat protein” value amounted to 39.3 nM under setting [1], 51.3 nM under setting [2] and 56.9 nM under setting [3].
“AGUAUGCGGCAGGAUAUCCAUCCGCGGUAAGGUGGAGAAGGGCUGACAUGAGGAUCACCCAUGUGCGUCCUGUA [salish99_ex6_r4_028] (Eterna round: R97, puzzle: Exclusion 6)”: the “apparent KD of MS2 coat protein” value is, setting by setting: (input ligand: FMN 200 uM) 31.9 nM; (input ligand: none) 19.9 nM.
For the sequence “AGUAUGUGAGGAUAUUUUUCGUCCGGUAGGAUACUACAGAGAAAGAAGGCACAUGAGGAUCACCCAUGUGAGAC [Eternabot (L1) Solution 55] (Eterna round: R97, puzzle: Exclusion 4)”, the “apparent KD of MS2 coat protein” value is, setting by setting: (input ligand: FMN 200 uM) 48.3 nM; (input ligand: none) 20.1 nM.
On to “AGUCCAGACGGACCCUCUAACAUGAGGAUCACCCAUGUAGCGGAGGAUAUCCGAAUUUGGGCGACGGAGAAGGCCGUUGCAGGG [Edsosobi] (Eterna round: R96, puzzle: Exclusion NG 3)”, for which the “apparent KD of MS2 coat protein” value (input ligand: FMN 200 uM) came to 21.3 nM, the “apparent KD of MS2 coat protein” value under setting [4] was found to be 27 nM and the “apparent KD of MS2 coat protein” value (input ligand: none) is 27.5 nM.
The matching figures for “AGUCCUAGUCAAGGAUAUACACCGAAGAAAUACGUAGAAGGUGACAUGAGGAUCACCCAUGUAGGGCCUCUGGAAACAGAGGAA [Indiinbi] (Eterna round: R96, puzzle: Exclusion NG 1)”: 208 nM, 107 nM and 143 nM.
Take “AGUCCUGGAGUUAGGAUAUGGUGUAUCGCUGCGCUUCAGAAGGGACUUGAGGAUCACCCAAGUAGCCGUGAGGG [salish99_bmod_ex4_r4_007] (Eterna round: R97, puzzle: Brourd's mod of Exclusion 4)”: the “apparent KD of MS2 coat protein” value reads like this: (input ligand: FMN 200 uM) 49.9 nM; (input ligand: none) 60.2 nM.
For “AGUCGAAAGACCAACAUGGACAUGAGGAUCACCCAUGUACAAGCCUUUUGCUCGUCACUAUCGUCAAAAGACGAUAG [Omei Mir Offv1 A1] (Eterna round: R97, puzzle: Sensor, turn-off variant 1)” the same measures were 34.5 nM and 32.8 nM.
For “AGUCGGCGAGGAUAUACAUGAGGAUCACCCAUGUGAUAGAGUGCACGCGUACGUGUACGUAGAAGGCGCUGACA [Mat - Exclusion 3 - Mod of JL D95] (puzzle: Exclusion 3)”, the “apparent KD of MS2 coat protein” value under setting [2] came out at 12.6 nM.
“AGUCGGUCAGGAUAUGCAAACGUAGACAUGAGGAUCACCCAUGUAACGUGGGCCUGGUUUGUAGAAGGGACGAGCA [EX5 #85] (Eterna round: R97, puzzle: Exclusion 5)”: the “apparent KD of MS2 coat protein” value by setting is: (input ligand: FMN 200 uM) 38.2 nM; (input ligand: none) 28.2 nM.
For “AGUCGGUCAGGAUAUGCAAUUGUGGACAUGAGGAUCACCCAUGUAACGUGGGCUUGGUUUGUAGAAGGGACGUGCA [EX5 #90] (Eterna round: R97, puzzle: Exclusion 5)” the same measures were 378 nM and 626 nM.
The matching figures for “AGUCGGUCAGGAUAUGCAGACGUAGACAUGAGGAUCACCCAUGUAACGUGGGCCUGGUUUGUAGAAGGGACGAGCA [EX5 #84] (Eterna round: R97, puzzle: Exclusion 5)”: 47.9 nM and 42.4 nM.
Consider “AGUGCUGGCGCGUCGGUGUUGGUGCAAUAAGCUUGUGAAACAUGAGGAUCACCCAUGUCCUCAUAAGCUCGUCUUAU [salish99_TOv2_r2_085] (Eterna round: R96, puzzle: Sensor v3, turn-off variant 2)”, for which the “apparent KD of MS2 coat protein” value (input ligand: FMN 200 uM) was 14.9 nM, the “apparent KD of MS2 coat protein” value under setting [4] was 375 nM and the “apparent KD of MS2 coat protein” value (input ligand: none) turned out to be 17.9 nM.
For the sequence “AGUGCUGGCGCGUCGGUGUUGGUGCAAUAAGCUUGUGAAACAUGAGGAUCACCCAUGUCCUCAUAAGCUCGUCUUAU [salish99_TOv2_r2_085] (puzzle: Sensor v3, turn-off variant 2)”, the “apparent KD of MS2 coat protein” value reads like this: under setting [1], 17.1 nM; under setting [2], 732 nM; under setting [3], 15.8 nM.
With “AGUGGCCGAGGAUAUACAUGAGGAUCACCCAUGUUUUAUGUUGAAACGUUAGCGGCCUGUAGAAGGCGGACCUU [Eternabot (L2) Solution 76] (Eterna round: R97, puzzle: Exclusion 3)”, the “apparent KD of MS2 coat protein” value runs as follows: (input ligand: FMN 200 uM) 17.5 nM; (input ligand: none) 19.3 nM.
For “AGUGUGUGGCAGGAUAUGCAAUUUAUAGGUGAAGCAGAAGGGUCUACAUGAGGAUCACCCAUGUGUGCGGUUGA [Ex6 #20] (Eterna round: R97, puzzle: Exclusion 6)” the same measures were 600 nM and 188 nM.
The matching figures for “AGUGUGUGGCAGGAUAUGCGAUUUGUAAGUAUUGCAGAAGGGUCUACAUGAGGAUCACCCAUGUGUGCGGUUGA [Ex6 #25] (Eterna round: R97, puzzle: Exclusion 6)”: 947 nM and 469 nM.
For “AGUGUGUGGCAGGAUAUGCUAUUGAUUGGUGAAGCAGAAGGGUCUACAUGAGGAUCACCCAUGUAAGCGGUUGA [Ex6 #28] (Eterna round: R97, puzzle: Exclusion 6)” the same measures were 327 nM and 46.4 nM.
Turning to “AGUGUGUGGCAGGAUAUUCUAAUGAUUAGGAGGGAAGAAGGGUCUACAUGAGGAUCACCCAUGUAAGCGGUUGA [Ex6 #39] (Eterna round: R97, puzzle: Exclusion 6)”, the “apparent KD of MS2 coat protein” value by setting is: (input ligand: FMN 200 uM) 135 nM; (input ligand: none) 38.3 nM.

These data come from the supplement of paper PMC9170038.
